Patent US20240182536A1 (MURAL ONCOLOGY, published 2024)

Tests used:
[1] = target: T1, IL-18 receptor (IL-18Rα and IL-18Rβ) (UniProt Q13478 19-541; O95256 20-599, limits assumed); experiment: cell-based or functional assay
T1 sequence (looked up) 1: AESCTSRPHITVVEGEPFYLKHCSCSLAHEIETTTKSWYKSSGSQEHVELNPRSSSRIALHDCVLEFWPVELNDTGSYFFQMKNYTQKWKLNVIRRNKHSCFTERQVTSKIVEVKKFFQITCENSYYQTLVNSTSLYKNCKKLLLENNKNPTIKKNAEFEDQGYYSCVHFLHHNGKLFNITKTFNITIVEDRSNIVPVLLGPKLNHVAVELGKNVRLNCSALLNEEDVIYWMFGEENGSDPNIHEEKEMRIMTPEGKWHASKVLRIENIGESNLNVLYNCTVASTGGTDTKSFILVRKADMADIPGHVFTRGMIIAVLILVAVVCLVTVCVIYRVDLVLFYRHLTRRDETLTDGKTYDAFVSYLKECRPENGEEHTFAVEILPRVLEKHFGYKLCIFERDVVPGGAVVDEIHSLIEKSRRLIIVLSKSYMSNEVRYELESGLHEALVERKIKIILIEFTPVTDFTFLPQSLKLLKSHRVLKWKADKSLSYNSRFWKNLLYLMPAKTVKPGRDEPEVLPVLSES
T1 sequence (looked up) 2: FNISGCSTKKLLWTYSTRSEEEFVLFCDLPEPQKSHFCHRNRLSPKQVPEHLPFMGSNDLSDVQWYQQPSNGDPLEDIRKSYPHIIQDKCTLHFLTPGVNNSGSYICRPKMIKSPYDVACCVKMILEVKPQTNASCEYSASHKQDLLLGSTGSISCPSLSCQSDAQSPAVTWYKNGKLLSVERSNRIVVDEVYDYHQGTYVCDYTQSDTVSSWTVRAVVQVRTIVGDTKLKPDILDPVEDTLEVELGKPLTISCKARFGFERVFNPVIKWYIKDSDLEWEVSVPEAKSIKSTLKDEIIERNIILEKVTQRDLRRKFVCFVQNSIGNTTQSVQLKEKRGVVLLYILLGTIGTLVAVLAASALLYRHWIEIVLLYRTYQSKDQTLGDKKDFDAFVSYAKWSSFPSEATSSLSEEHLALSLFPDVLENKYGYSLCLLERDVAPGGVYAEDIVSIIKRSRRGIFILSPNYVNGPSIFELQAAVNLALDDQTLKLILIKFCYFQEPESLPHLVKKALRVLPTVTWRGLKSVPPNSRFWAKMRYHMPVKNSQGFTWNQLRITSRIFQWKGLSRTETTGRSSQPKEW

[2] = target: T2, interleukin 18 binding protein (IL-18BP) (UniProt O95998 31-194); experiment: cell-based or functional assay
T2 sequence (looked up): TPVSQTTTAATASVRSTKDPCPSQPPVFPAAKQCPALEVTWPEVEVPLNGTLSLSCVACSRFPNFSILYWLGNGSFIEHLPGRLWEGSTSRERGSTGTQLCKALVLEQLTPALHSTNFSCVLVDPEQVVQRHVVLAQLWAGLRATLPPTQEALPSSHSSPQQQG

Binder | EC50 (pM) - BP, HEK-blue re-screening [1] [pM] | EC50 (pM) + 100 nM BP, HEK-blue re-screening [2] [pM] | Ratio (HEK-blue EC50, + 100 nM BP against - BP) [2]
IL-18 variant G3Q, E6S, S55V, T63A, N91T (ligand) YFQKLSSKLSVIRNLNDQVLFIDQGNRPLFEDMTDSDMRDNAPRTIFIISMYKDVQPRGMAVAISVKSEKISTLSSENKIISFKEMNPPDTIKDTKSDIIFFQRSVPGHDNKMQFESSSYEGYFLASEKERDLFKLILKKEDELGDRSIMFTVQNED | 0.2 | 35.9 | 180
IL-18 variant G3D, E6Q, R27S, K53R, D54A, S55R, T63S, N91Q (ligand) YFDKLQSKLSVIRNLNDQVLFIDQGNSPLFEDMTDSDMRDNAPRTIFIISMYRARQPRGMAVSISVKSEKISTLSSENKIISFKEMNPPDQIKDTKSDIIFFQRSVPGHDNKMQFESSSYEGYFLASEKERDLFKLILKKEDELGDRSIMFTVQNED | 4.22 | 25.7 | 6.1
IL-18 variant G3S, E6G, D54V, S55K, T63S, N91Y, R104T (ligand) YFSKLGSKLSVIRNLNDQVLFIDQGNRPLFEDMTDSDMRDNAPRTIFIISMYKVKQPRGMAVSISVKSEKISTLSSENKIISFKEMNPPDYIKDTKSDIIFFQTSVPGHDNKMQFESSSYEGYFLASEKERDLFKLILKKEDELGDRSIMFTVQNED | 0.21 | 4.87 | 23.2
IL-18 variant G3L, E6Q, T63S, N91L, R104T (ligand) YFLKLQSKLSVIRNLNDQVLFIDQGNRPLFEDMTDSDMRDNAPRTIFIISMYKDSQPRGMAVSISVKSEKISTLSSENKIISFKEMNPPDLIKDTKSDIIFFQTSVPGHDNKMQFESSSYEGYFLASEKERDLFKLILKKEDELGDRSIMFTVQNED | 0.03 | 1.67 | 55.7
IL-18 variant E6D, D54T, S55W, T63S, N91S, R104T (ligand) YFGKLDSKLSVIRNLNDQVLFIDQGNRPLFEDMTDSDMRDNAPRTIFIISMYKTWQPRGMAVSISVKSEKISTLSSENKIISFKEMNPPDSIKDTKSDIIFFQTSVPGHDNKMQFESSSYEGYFLASEKERDLFKLILKKEDELGDRSIMFTVQNED | 3.42 | 62.8 | 18.4
IL-18 variant G3Q, E6N, D54Y, S55P, T63S, N91S, R104H (ligand) YFQKLNSKLSVIRNLNDQVLFIDQGNRPLFEDMTDSDMRDNAPRTIFIISMYKYPQPRGMAVSISVKSEKISTLSSENKIISFKEMNPPDSIKDTKSDIIFFQHSVPGHDNKMQFESSSYEGYFLASEKERDLFKLILKKEDELGDRSIMFTVQNED | 9.63 | 34.7 | 3.6
IL-18 variant G3Y, E6N, N91Y, R104S (ligand) YFYKLNSKLSVIRNLNDQVLFIDQGNRPLFEDMTDSDMRDNAPRTIFIISMYKDSQPRGMAVTISVKSEKISTLSSENKIISFKEMNPPDYIKDTKSDIIFFQSSVPGHDNKMQFESSSYEGYFLASEKERDLFKLILKKEDELGDRSIMFTVQNED | 0.09 | 2.89 | 32.1
IL-18 variant G3I, E6Q, N91M, R104Y (ligand) YFIKLQSKLSVIRNLNDQVLFIDQGNRPLFEDMTDSDMRDNAPRTIFIISMYKDSQPRGMAVTISVKSEKISTLSSENKIISFKEMNPPDMIKDTKSDIIFFQYSVPGHDNKMQFESSSYEGYFLASEKERDLFKLILKKEDELGDRSIMFTVQNED | 0.07 | 3.77 | 53.9
